The results in this text go back to patent US20230395193A1 (priority 2020, published 2023).

The labels stand for the following.
B1: M-Q8TBF5 (protein, UniProt Q8TBF5 22-258, looked up)
GPI …: LTRGPAAAFTAARSDAGIRAMCSEIILRQEVLKDGFHRDLLIKVKFGESIEDLHTCRLLIKQDIPAGLYVDPYELASLRERNITEAVMVSENFDIEAPNYLSKESEVLIYARRDSQCIDCFQAFLPVHCRYHRPHSEDGEASIVVNNPDLLMFCDQEFPILKCWAHSEVAAPCALENEDICQWNKMKYKSVYKNVILQVPVGLTVHTSLVCSVTLLITILCSTLILVAVFKYGHFSL
modifications: prey of SARS-CoV-2 M
B2: M-Q8NDZ4 (protein, UniProt Q8NDZ4 36-430, looked up)
Divergent protein kinase …: LASWQRNELTDRRFLQLNKCPACFGTSWCRRFLNGQVVFEAWGRLRLLDFLNVKNVYFAQYGEPREGGRRRVVLKRLGSQRELAQLDQSICKRATGRPRCDLLQAMPRTEFARLNGDVRLLTPEAVEGWSDLVHCPSQRLLDRLVRRYAETKDSGSFLLRNLKDSERMQLLLTLAFNPEPLVLQSFPSDEGWPFAKYLGACGRMVAVNYVGEELWSYFNAPWEKRVDLAWQLMEIAEQLTNNDFEFALYLLDVSFDNFAVGPRDGKVIIVDAENVLVADKRLIRQNKPENWDVWYESKFDDCDKEACLSFSKEILCARATVDHNYYAVCQNLLSRHATWRGTSGGLLHDPPSEIAKDGRLEALLDECANPKKRYGRFQAAKELREYLAQLSNNVR
B3: M-Q6AI08 (protein, UniProt Q6AI08 1-1181, looked up)
HEAT repeat-containing …: MAAVQVVGSWPSVQPREAPREAIPERGNGFRLLSARLCALRPDDSSSARTEIHLLFDQLISENYSEGSGVAPEDVSALLVQACRLVPLNQNHLVSKVSQLIHHLLNRLQVIVDEQHLDFLLAYTISAIHQCSSWTHREILQALAALVYCNGSKCQKYLPELLGNTGLLMKLSDLAQSDPEVRRAAVHCMANLCLSVPGQPYLEEPYQNVCFQAFLTILQSPKSSDMDDITFCMLLQNALKGIQSLLNGGRMKLTQTDELGALLAVLKKFMFHGLPGLNIEMPTVLYPTPLPQYDGRTPIKPQQSESSASRPTLNKKKKSKVKPKKIQQGEEEEKESSGEIEAAPVTGTGRVNLHEGNTWCPSSLGVQSLPLDGSGAAEKDGVSSSFSSSSWKRVSSSESDFSDAEGGMQSKMRSYQAKVRQGALVCFLSTIKSIEKKVLYGYWSAFIPDTPELGSPQSVSLMTLTLKDPSPKTRACALQVLSAILEGSKQFLSVAEDTSDHRRAFTPFSVMIACSIRELHRCLLLALVAESSSQTVTQIIKCLANLVSNAPYDRLKLSLLTKVWNQIKPYIRHKDVNVRVSSLTLLGAIVSTHAPLPEVQLLLQQPCSSGLGNSNSATPHLSPPDWWKKAPAGPSLEETSVSSPKGSSEPCWLIRLCISIVVLPKEDSCSGSDAGSAAGSTYEPSPMRLEALQVLTLLARGYFSMTQAYLMELGEVICKCMGEADPSIQLHGAKLLEELGTGLIQQYKPDSTAAPDQRAPVFLVVMFWTMMLNGPLPRALQNSEHPTLQASACDALSSILPEAFSNLPNDRQMLCITVLLGLNDSKNRLVKAATSRALGVYVLFPCLRQDVIFVADAANAILMSLEDKSLNVRAKAAWSLGNLTDTLIVNMETPDPSFQEEFSGLLLLKMLRSAIEASKDKDKVKSNAVRALGNLLHFLQPSHIEKPTFAEIIEESIQALISTVLTEAAMKVRWNACYAMGNVFKNPALPLGTAPWTSQAYNALTSVVTSCKNFKVRIRSAAALSVPGKREQYGSVDQYARIWNALVTALQKSEDTIDFLEFKYCVSLRTQICQALIHLLSLASASDLPCMKETLELSGNMVQSYILQFLKSGAEGDDTGAPHSPQERDQMVRMALKHMGSIQAPTGDTARRAIMGFLEEILAVCFDSSGSQGALPGLTNQ
modifications: interaction partner of SARS-CoV-2 M
B4: M-Q7RTS9 (protein, UniProt Q7RTS9 2-669, looked up)
Dymeclin: GSNSSRIGDLPKNEYLKKLSGTESISENDPFWNQLLSFSFPAPTSSSELKLLEEATISVCRSLVENNPRTGNLGALIKVFLSRTKELKLSAECQNHIFIWQTHNALFIICCLLKVFICQMSEEELQLHFTYEEKSPGNYSSDSEDLLEELLCCLMQLITDIPLLDITYEISVEAISTMVVFLSCQLFHKEVLRQSISHKYLMRGPCLPYTSKLVKTLLYNFIRQEKPPPPGAHVFPQQSDGGGLLYGLASGVATGLWTVFTLGGVGSKAAASPELSSPLANQSLLLLLVLANLTDASDAPNPYRQAIMSFKNTQDSSPFPSSIPHAFQINFNSLYTALCEQQTSDQATLLLYTLLHQNSNIRTYMLARTDMENLVLPILEILYHVEERNSHHVYMALIILLILTEDDGFNRSIHEVILKNITWYSERVLTEISLGSLLILVVIRTIQYNMTRTRDKYLHTNCLAALANMSAQFRSLHQYAAQRIISLFSLLSKKHNKVLEQATQSLRGSLSSNDVPLPDYAQDLNVIEEVIRMMLEIINSCLTNSLHHNPNLVYALLYKRDLFEQFRTHPSFQDIMQNIDLVISFFSSRLLQAGAELSVERVLEIIKQGVVALPKDRLKKFPELKFKYVEEEQPEEFFIPYVWSLVYNSAVGLYWNPQDIQLFTMDSD
modifications: interactor of viral M protein
B5: M-Q8NEW0 (protein, UniProt Q8NEW0 1-376, looked up)
Zinc transporter 7: MLPLSIKDDEYKPPKFNLFGKISGWFRSILSDKTSRNLFFFLCLNLSFAFVELLYGIWSNCLGLISDSFHMFFDSTAILAGLAASVISKWRDNDAFSYGYVRAEVLAGFVNGLFLIFTAFFIFSEGVERALAPPDVHHERLLLVSILGFVVNLIGIFVFKHGGHGHSHGSGHGHSHSLFNGALDQAHGHVDHCHSHEVKHGAAHSHDHAHGHGHFHSHDGPSLKETTGPSRQILQGVFLHILADTLGSIGVIASAIMMQNFGLMIADPICSILIAILIVVSVIPLLRESVGILMQRTPPLLENSLPQCYQRVQQLQGVYSLQEQHFWTLCSDVYVGTLKLIVAPDADARWILSQTHNIFTQAGVRQLYVQIDFAAM
modifications: interaction partner of viral M protein
B6: M-Q86UL3 (protein, UniProt Q86UL3 38-456, looked up)
Glycerol-3-phosphate …: VSFGIRKLYMKSLLKIFAWATLRMERGAKEKNHQLYKPYTNGIIAKDPTSLEEEIKEIRRSGSSKALDNTPEFELSDIFYFCRKGMETIMDDEVTKRFSAEELESWNLLSRTNYNFQYISLRLTVLWGLGVLIRYCFLLPLRIALAFTGISLLVVGTTVVGYLPNGRFKEFMSKHVHLMCYRICVRALTAIITYHDRENRPRNGGICVANHTSPIDVIILASDGYYAMVGQVHGGLMGVIQRAMVKACPHVWFERSEVKDRHLVAKRLTEHVQDKSKLPILIFPEGTCINNTSVMMFKKGSFEIGATVYPVAIKYDPQFGDAFWNSSKYGMVTYLLRMMTSWAIVCSVWYLPPMTREADEDAVQFANRVKSAIARQGGLVDLLWDGGLKREKVKDTFKEEQQKLYSKMIVGNHKDRSRS
modifications: interactor of M protein
B7: M-Q6PJG6 (protein, UniProt Q6PJG6 1-821, looked up)
Integrator complex assembly …: MDPECAQLLPALCAVLVDPRQPVADDTCLEKLLDWFKTVTEGESSVVLLQEHPCLVELLSHVLKVQDLSSGVLSFSLRLAGTFAAQENCFQYLQQGELLPGLFGEPGPLGRATWAVPTVRSGWIQGLRSLAQHPSALRFLADHGAVDTIFSLQGDSSLFVASAASQLLVHVLALSMRGGAEGQPCLPGGDWPACAQKIMDHVEESLCSAATPKVTQALNVLTTTFGRCQSPWTEALWVRLSPRVACLLERDPIPAAHSFVDLLLCVARSPVFSSSDGSLWETVARALSCLGPTHMGPLALGILKLEHCPQALRTQAFQVLLQPLACVLKATVQAPGPPGLLDGTADDATTVDTLLASKSSCAGLLCRTLAHLEELQPLPQRPSPWPQASLLGATVTVLRLCDGSAAPASSVGGHLCGTLAGCVRVQRAALDFLGTLSQGTGPQELVTQALAVLLECLESPGSSPTVLKKAFQATLRWLLSSPKTPGCSDLGPLIPQFLRELFPVLQKRLCHPCWEVRDSALEFLTQLSRHWGGQADFRCALLASEVPQLALQLLQDPESYVRASAVTAMGQLSSQGLHAPTSPEHAEARQSLFLELLHILSVDSEGFPRRAVMQVFTEWLRDGHADAAQDTEQFVATVLQAASRDLDWEVRAQGLELALVFLGQTLGPPRTHCPYAVALPEVAPAQPLTEALRALCHVGLFDFAFCALFDCDRPVAQKSCDLLLFLRDKIASYSSLREARGSPNTASAEATLPRWRAGEQAQPPGDQEPEAVLAMLRSLDLEGLRSTLAESSDHVEKSPQSLLQDMLATGGFLQGDEADCY

The assay relates to SARS-CoV-1, MERS-CoV and SARS-CoV-2 proteins in HEK293T cells. On the set-up: species or system human.
In turn, B1 came in with an MIST_MERS of 0, an MIST_SARS1 of 0.9901, an MIST_SARS2 of 0.4273 and a Saint_MERS of 0. The molecule further had a Saint_SARS1 of 0.99 and a Saint_SARS2 of 0.33.
B2 came in with an MIST_MERS of 0.7477, an MIST_SARS1 of 0, an MIST_SARS2 of 0 and a Saint_MERS of 1. This molecule also had a Saint_SARS1 of 0 and a Saint_SARS2 of 0.
In turn, B3 returned an MIST_MERS of 0, an MIST_SARS1 of 0.8284, an MIST_SARS2 of 0 and a Saint_MERS of 0. The molecule further yielded a Saint_SARS1 of 0.97 and a Saint_SARS2 of 0.
On to B4, for which the MIST_MERS was 0, the MIST_SARS1 came out at 0.9893, the MIST_SARS2 is on record as 0 and the Saint_MERS is given as 0. Moreover, the Saint_SARS1 is 0.97 and the Saint_SARS2 is 0.
Take B5: the MIST_MERS came out at 0.5834, the MIST_SARS1 stood at 0.6222, the MIST_SARS2 amounted to 0.767 and the Saint_MERS is recorded as 0.64. In addition, the Saint_SARS1 worked out at 0.97 and the Saint_SARS2 is recorded as 1.
With B6, the MIST_MERS is given as 0.2998, the MIST_SARS1 turned out to be 0.8496, the MIST_SARS2 amounted to 0.485 and the Saint_MERS is on record as 0.31. The molecule further registered a Saint_SARS1 of 1 and a Saint_SARS2 of 0.96.
In turn, B7 showed an MIST_MERS of 0, an MIST_SARS1 of 0.9911, an MIST_SARS2 of 0 and a Saint_MERS of 0. The Saint_SARS1 is 1 and the Saint_SARS2 is listed as 0.
